According to US5817516, “Methods for proliferating and differentiating B cells with high density membrane CD40 ligand” (Boehringer Ingelheim Pharmaceuticals, Inc., dated 1998):

Target: CD40 on human B cells (human, UniProt P25942)
Test: cell-based or functional assay

expansion of human B cells grown with hdmb CD40 ligand as described for the mouse cells: ~100 fold
B1: high density, membrane bound mouse CD40 ligand (ligand)
chain: MIETYSQPSPRSVATGLPASMKIFMYLLTVFLITQMIGSVLFAVYLHRRLDKVEEEVNLHEDFVFIKKLKRCNKGEGSLSLLNCEEMRRQFEDLVKDITLNKEEKKENSFEMQRGDEDPQIAAHVVSEANSNAASVLQWAKKGYYTMKSNLVMLENGKQLTVKREGLYYVYTQVTFCSNREPSSQRPFIVGLWLKPSSGSERILLKAANTHSSSQLCEQQSVHLGGVFELQAGASVFVNVTEASQVIHRVGFSSFGLLKL
